Laboratory results published in the nanobody polyreactivity screen of Harvey et al. (2022).

Assay: yeast display, Sf9 membrane polyspecificity reagent, FACS + sequencing; frameworks hold sequencing errors
Procedure, shortened: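 Sorting gates, low and high (top ~1%), were placed on anti-HA fluorescence to track expression and on streptavidin fluorescence to track reagent binding. A clone's polyreactivity label is taken from the gate it came out of. The reagent was 10% biotinylated, detergent-solubilized Sf9 membrane, applied for 1 hour at 4 °C to galactose-induced yeast display cells.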

Sequence	polyreactivity (PSR sort gate)
QLQLVESGGGLVQAGGSLRLSCAASGSIYWRNAMGWYRQAPGKERELVAAITSGGSTYYADSVKGRFTISRDNAKNTVYLQMNSLKPEDTAVYYCAAGYSYRYGYWGQGTQVTVSS	low polyreactivity
QLQLVESGGGLVQAGGSLRLSCAASGSTFLYNAMGWYRQAPGKERELVAAITVSDGSTYYADSVKGRFTISRDNAKNTVYLKMNSLKPVDTAVYYCNADFPRKTRYEYWGQGTQVTVSS	low polyreactivity
QLQLVESGGGLVQAGGSLRLSCAASGSTFPTNAMGWYRQAPGKERELVARISWDGGRTNYADSVKGRFTISRDNAKNTVYLQMNSLKPEDTAVYYCAAEKQHFGPYGYWGQGTQVTVSS	low polyreactivity
QLQLVESGGGLVQAGGSLRLSCAASGSTFREYAMGWYRQAPGKERELVAAISSGDSTNYADSVKGRFTISRDNAKNTVYLQMNSLKPEDTSVYYCAADAQGAAAVQNDYWGQGTQVTVSS	low polyreactivity
QLQLVESGGGLVQAGGSLRLSCAASGSTFRYNAMGWYRQAPGKEREFVAAITSGGGSTYYADSVKGRFTISRDNAKNTVYLQMNSLKPEDTAVYYCAKYTSSRRNTWYYYWGQGTQVTVSS	high polyreactivity
QLQLVESGGGLVQAGGSLRLSCAASGSTISGYAMGWYRQAPGKARELVARINSGGGRTYYADSVKGRFTISRDNAKNTVYLQMNSLKREDTEVYYFAAYSKPFPYVSTIRYYYWGQGTQVTVSS	high polyreactivity
QLQLVESGGGLVQAGGSLRLSCAASGSTLDRYVMGWYRPAPGKERELVAAISRNGGSTYYADSVKGRFTISRDIAKNTVYLQMNSLKPEDTAVYYCAAYIYQSPTRGGGYWGQGTQVTVSS	high polyreactivity
QLQLVESGGGLVQAGGSLRLSCAASGSTYGPYAMGWYRQAPGKERELVSAITISGDSTNYADSVKGRFTISRDNAKNTVYLQMNSLKPEDTAVYYCAAAYYWLQSWYDYWGQGTQVTVSS	low polyreactivity
QLQLVESGGGLVQAGGSLRLSCAASGYMGWYRQAPGKERELVATISGSGGSTYYADSVKGRFTISRDNAKNTVYLQMNSLKPEDTAVYYCTTEIWGVNRSGYDYWGQGTQVTVSS	low polyreactivity
QLQLVESGGGLVQAGGSLRLSCAASGYTFKTNDMGWYRQAPGKEREFVAAIDSGGNTYYADSVKGRFTISRDNAKNTVYLQMNSLKPEDTAVYYCAAYRDYQNDYWGQGTQVTVSS	low polyreactivity
QLQLVESGGGLVQAGGSLRLSCAPSGRIFPSYAMGWYRQAPGKERELVAPISWSGVSTYADSVKGRFTISRDNAKNTVYLQMNSVKPEDTAVYFCAAQYTLVIFPYGGYVIEYEYWGQGTQVTVSS	low polyreactivity
QLQLVESGGGLVQAGGSLRLSCAPTGRTFYRNAMGCKRPAPGKESELVASIRRNGGSTYYADSVKGRFTITRDNAKNTVYLPMNSMKPEDTAVYYCAAYFSYAGPKGAVYGMDYWGQGTQVTVSS	high polyreactivity
QLQLVESGGGLVQAGGSLRLSCASSGIIFRWYTIGWSRQAPGKERELDAAITGRGGSTFYADSVKGRFTISRDNAKNTVYVQMNSLKPEDTAFYYCAAQYSYPTPYRTYEYDYWGQGTQVTVSS	high polyreactivity
QLQLVESGGGLVQAGGSLRLSCASSGSIFLFNAMGWYRQAAGQERELVAAITSSGTRTYYADSVKGRFTISRDNAKNTVYLQMNSLKPEDTAVYYCNAVGPVDSYHRYYYWGQGTQGTVSS	low polyreactivity
QLQLVESGGGLVQAGGSLRLSCASSGSNFQPYAMGWYRQAPGIERELVAAISRGGTTYYADSVKGRFTISRDNAKTTVYLQMNSLKPEDTAVYYCAADSYKPDGYRLRNDYWGQGTQVIVSS	high polyreactivity
QLQLVESGGGLVQEGGSLRLSCAASGSTFVYNDKGWYRQAPGKDRELVAAITSGVRTYYSDYVKGRFTISRDNAKNTVYLQMNSLKPEDTALYYCGTGWRYAQYYYWGQGTQVTVSS	high polyreactivity
QLQLVESGGGVVQAGGSLRLSCAASGGIFDRYAMGCDRQAPGKERELVAAITSGGSTNYADSVKGRFTISRDNAKNTVYLQMNSLQPEDTAVYYCNADLGILSGVAEGPTFREYDYWGQGTQVTVSS	low polyreactivity
QLQLVESGGRLVQAGGSLRLSCAASGFIFRWNAMGCYIQAPGKASEFVAAITSSTGSTYYAVSVKGRFTISRDNAKNTVYLQMNSLKPEDTAVYDCAADKRGTVYLSSFWMDYWGQGTQVTVSS	low polyreactivity
QLQLVESGGVLVQAGGSLRLSCAASGTFYGYVMGWYRQAPGKERELGASINWSGGSTNYADSVKGRFTISRDNAKNTVFFQMNSRKPEDTAVYYCNADWGWGAYDYWGQGTQVTVSS	low polyreactivity
QLQLVESGRGLVQAGGSLRLSCAPSGRILVLIAMGWYRQATGKERELVADITSGGSTYYADSVKGRFTISRDNAKKTVYLQMNSLKKEDTAVYYCAADWNTYPDYQQSYFVCYEYNYWGQGTQVTVSS	low polyreactivity
QLQLVESGRGLVQAGGSLRLSCDASGYIFGWYAMGSYRQAPGKERELVAAITRGVSTNYADSVKGRFTISRENAMNTVYLQMNSLKPEDTAVYYCNTEDWAVGSPEVEYEYDYWGQGTQVTVSS	low polyreactivity
QLQLVESVGGLVQAGGSLRLSCASSGRTFDYNAMGWYRQAPGKERELVARISNGDSTYADSVKGRFTISRDNAKNTVYLQMNSLKPVDTAVYYCAKSTRRGGVALGEYDYWGQGTQVTVSS	low polyreactivity

Sequence	polyreactivity (PSR sort gate)
QLQLVETGGGIVQAAGSLRLSCAASGFTYNRYAKGWYRKAPGKERELVAAISRGGTTYADSVKGRFTISRDNAKNTVYLQMNSLKPEDTAVYYCNRLRYGYPQEFGYWGQGTQVTVSS	high polyreactivity
QLQLVETGGGLVQAGGSLRLSCAATGSTFQGYPMGWYRQAPGKDRELVAAISWNGGSTYYADSVKGRFTISRDNAKNTVYLQMNSLKPEDTAVYYCAAYSFAYSYNYWGQGTQVTVSS	high polyreactivity
QLQLVQSGGGLVQAGGSLRLSCAASGITSPYAMGWYRQAPGKERELVARNSKGGGSTYYADSVKGRFTISRDNAKNTVYLQMNSLKPEDTAVYYCAADWYNRSRPRYYTRYYYWGQGTQVTVSS	high polyreactivity
QVEHVESGGALGQAGGSLRLSCAASGITFAPYAMGWYREAPGKETEFDAGINTGGSKYYADSVKGRFTISRDNAKNTFYVQMNSLKPEDTAVYFCATESYPADQDIPGSDYWGQGTQVTVSS	low polyreactivity
QVELQVSGGGLVRAGGSLRLSCAASGNIFDADIMGWYRQAPGKERELVASITGGGSTSYAESAKGRFTISRDNAKNAVYLQMNSLKPEDTAVYYCAKDGYVYGDWYTYAYDYWGQGTQVTVSS	low polyreactivity
QVELVESAGGLVQAGGSLRLSCAASGRIFAYNAMGWYRQAPGKERELVAAISQSGGSTYYADSVKGRFTISRANAKNTVYLQLNSLKPEDTAVYYCHAVYGRQYRGYNYKYYYWGQGTQVTVSS	high polyreactivity
QVELVESGAGLVQAGGSLRLSCAASGRIFRYYVKGWYRQAPGKESELVAAISSGGSTNYADSVKGRFTISRDNAKNTVYLQMNSLKPEDTAVYYCNRDIGGSSVLDDYWGQGTQVTVSS	low polyreactivity
QVELVESGGGLVQAGGSLRLSCAASGITFYVYTMGWYRQAPGKERELVAAINGSGGSTNYADSVKGRFTISRDIAKNTVFLQMNSLKPEDSAVYYCAADWSLRLYDYWGQGTQVTVSS	low polyreactivity
QVELVESGGGLVQAGGSLRLSCAASGRIFSPNAMGWYRQAPGKERELVAALTGSGGTTYYADSVKGRFKISRDNAKNTVYLQMNSLKREDTAVYYCAADLYPFSRNPRYQFLYNYWGQGTQVTVSS	low polyreactivity
QVELVESGGGLVQAGGSLSLSCAASGFTFVGNTMGWYRQAPGKEREWGAAIRGRDGRTYYADSVKGRFTISRDKAKNTVYLQMNSLKPEETAVYYCNVDVKYSVRSEIDYWGQRTQVTVSS	low polyreactivity
QVELVESGGGLVQGGGTLRLSCAASGRTFNRYAMGWYRQAPGKERELVASITRSGGSTYYADSVKGRFTISRENAKNTVSLQMNSLKPDHTAVYYCANRSSGCFGYWGQGTQVTLSS	high polyreactivity
QVHHVESAGGLVQAGGILRLSCAASGRTFGANAMGWYRQPPVKERELVAAISKSGGRTYYADSVTGRFTISRDNAKNTVYLQMNSLKPEDTEVYYCNKVMCVSQAGGFDYWGQGTQVTVSS	high polyreactivity
QVHHVESGGGLVQAGGSLRLSCAAYGFIFNVYAMGWYRQAPGKERELVAAISTSGSNTYYADSVKGRFTISRDNAKNTVYLQMNSLKPEDTADYYCAAAYRYPSGRSFGYWGQGTQVTVSS	high polyreactivity
QVHHVESGGGVVQAGGSLRLSCAASGRITYVNAMGWYRQPPGKESELVATITGSGDSKHYADSVKGRFTISRDNAMNTVYLQMNSLKPEVTAVYYGAADVYRYWQIYEYWGQGTQVTVSS	low polyreactivity
QVHIVESGGGLDQAGGSLRLSCAASGFTFNAYAMGWYRQAPGKERELVAAISGRGSSTYYADSVKGRFTISRDNAKNTVYLQMNSLKPEDTEVYYCATKFYYQYPYRGDYWGQGTEVTVSS	high polyreactivity
QVHLEESGGGLVQAGGSLRISCAASGSTFYYYAMGWYRQAPGKERELVAAISNRDGRTYYADSVKGRFTISRDNAKNTVYLQMNSLKPEDSAVYYCNAYSYGHYYWGQGTQVTVSS	high polyreactivity
QVHLEESGGGLVQAGGSLRLSCAASGGTILAYAMGWYRQAPGKERELVAAITRRGTRTYYADSVKGRFTISLDNAKNTVYLQMNSLKPEVTAVFYCAVSGGFYWGQGTQVTVSS	high polyreactivity
QVHLEESGGGLVQAGGSLRLSCAASGIIFHFNDRGWYRQATGKERELVAAITSGGSTNYADSVKGRFTISRDNAKNTVYLQMNSLKPEDTAVYYCAARRCLRLFAYRHGYWGQGTQVTVSS	low polyreactivity
QVHLEESGGGLVQAGGSLRLSSAASGSNFDYNAMGWYRQAPGKERELVAAISRTGGRTYYADSVKGRFTISRDNAKNTVYLQMNSLKPEDTAVYYWNAVNRIGGGDYDYWGLGTQVTVSS	low polyreactivity
QVHLEESGGRLVQEGGSLRISCAASGSILRSYAMGWYRQAPGKERELVAVINRGTSTNYADSVKGRFTISRDNAKNTVYLQMNSVKPEDTAVYYCAVAVLPWQLDSESYAEYDYWGEGTQVTVSS	low polyreactivity
QVHLEESGRGLLQAGGSLRLSCDASGSTQNLYVMGWYRQAPGKESELVAAITSRGGRTYYADSVKGRFTISRDNAKNTVYLHMNSLKPEDTAVYYCAATKKTGYYRYYYWGQGTQVTVSS	high polyreactivity
